Where a chain is given by its changes, count along the chain named. Numbers in names are those of the source. One block for each molecule: values may come before it.
Tests used:
[1] = molecular target: dephosphorylated Aurora A kinase 122-403 (human) (UniProt O14965); assay: AUC + other: SAXS; estimate from the concentration dependence of the dimer in AUC and SAXS; dimer to monomers
[2] = molecular target: dephosphorylated Aurora A kinase 122-403 (human) (UniProt O14965); assay: AUC; sedimentation velocity, 50,000 rpm, 18°C; 100-160 μM Aurora A + 500 μM AMPPCP, with or without 100 μM TPX2 1-25, kinase assay buffer; dimer to monomers
[3] = molecular target: dephosphorylated Aurora A kinase 122-403 (human) (UniProt O14965); assay: SAXS; Aurora A 0.33-6.6 mg/ml with 1 mg/mL TPX2 1-25, 500 μM AMPPCP, kinase assay buffer, 20°C; curves fitted with monomer and dimer of the X-ray structures
[4] = molecular target: the molecule itself; assay: AUC; sedimentation velocity, 50,000 rpm, 18°C; 100-160 μM Aurora A + 500 μM AMPPCP, with or without 100 μM TPX2 1-25, kinase assay buffer; dimer to monomers
Aurora A^122−403 T288V = molecular target: T1, Aurora A^122−403 T288V (human, UniProt O14965 122-403, T288V); assay: cell-based or functional assay
T1 sequence (looked up): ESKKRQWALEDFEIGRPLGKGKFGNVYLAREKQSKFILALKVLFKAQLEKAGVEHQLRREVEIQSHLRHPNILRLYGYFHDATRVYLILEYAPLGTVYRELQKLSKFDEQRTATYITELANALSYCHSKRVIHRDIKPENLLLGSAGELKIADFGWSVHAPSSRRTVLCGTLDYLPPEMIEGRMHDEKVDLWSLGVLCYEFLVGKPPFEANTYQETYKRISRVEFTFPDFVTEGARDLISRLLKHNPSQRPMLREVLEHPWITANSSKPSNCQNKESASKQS

[5] = molecular target: T2, phosphorylated Aurora A kinase 122-403 (human, UniProt O14965 122-403, heavily phosphorylated (multiple sites, by autophosphorylation and E. coli kinases during expression); T288 in the activation loop phosphorylated); assay: ITC; phosphorylated Aurora A
T2 chain: T1 sequence (looked up) with V167T

[6] = molecular target: T3, dephosphorylated Aurora A kinase 122-403 (human, UniProt O14965 122-403); assay: ITC; Nano ITC, 1 μl injections every 180 s, 25°C; 20 mM TrisHCl, 200 mM NaCl, 3% glycerol, 1 mM TCEP, pH 7.50; independent fit model; Aurora A 13-90 μM, TPX2 250-940 μM; conditions: both partners purified
T3 construct: Aurora A kinase, human, residues 122-403, codon-optimized, completely dephosphorylated (confirmed by MS); Monomer and dimer are both seen in solution; also called deP Aurora A; deP Aurora A^122−403
T3 sequence (looked up): T1 sequence (looked up) with V167T

[7] = molecular target: T4, dephosphorylated Aurora A kinase 122-403 (human, UniProt O14965 122-403); assay: ITC
T4 chain: T1 sequence (looked up) with V167T

B1: Aurora A^125−392 D274A (domain or fragment, human, UniProt O14965 125-392, looked up)
chain: KRQWALEDFEIGRPLGKGKFGNVYLAREKQSKFILALKVLFKAQLEKAGVEHQLRREVEIQSHLRHPNILRLYGYFHDATRVYLILEYAPLGTVYRELQKLSKFDEQRTATYITELANALSYCHSKRVIHRDIKPENLLLGSAGELKIAAFGWSVHAPSSRRTTLCGTLDYLPPEMIEGRMHDEKVDLWSLGVLCYEFLVGKPPFEANTYQETYKRISRVEFTFPDFVTEGARDLISRLLKHNPSQRPMLREVLEHPWITANSSKPSN
notes: Aurora A kinase, human, residues 125-392, D274A; The purification of this mutant is not described on its own; also called kinase-dead Aurora A D274A; catalytically impaired D274A mutant; source: E. coli, purified (short 125-392 construct in pET28a)
stoichiometry N [4]: 2

Molecule: MSQVKSSYSYDAPSDFINFSSLDDE [TPX2^1−25]
Kd [7]: 2 µM
Kd [5]: 1800 nM

Molecule: MSQVKSSYSYDAPSDFINFSSLDDEGDTQNIDSWFEEKANLENKL [TPX2^1−45]
Kd [7]: 5 µM
Kd [5]: 2000 nM

The remaining lines, values ahead:

Kd [1]: > 300 µM
stoichiometry N [2]: 2
percent dimer [3]: 9%
Molecule: dephosphorylated Aurora A kinase 122-403 (from UniProt O14965 122-403) (domain or fragment)

KA from the dose-dependence of TPX2 1-147 on AP phosphorylation kinetics by 1 μM Aurora A T288V (Aurora A^122−403 T288V): 1 µM
Kd [5]: 2900 nM
Kd [6]: 1100 ± 100 nM
B2: TPX2^1−147 (Targeting Protein for Xklp2, residues 1-147) (domain or fragment, UniProt Q9ULW0 1-147, looked up)
chain: MSQVKSSYSYDAPSDFINFSSLDDEGDTQNIDSWFEEKANLENKLLGKNGTGGLFQGKTPLRKANLQQAIVTPLKPVDNTYYKEAEKENLVEQSIPSNACSSLEVEAAISRKTPAQPQRRSLRLSAQKDLEQKEKHHVKMKAKRCAT
notes: TPX2 (Targeting Protein for Xklp2), residues 1-147; also called longer TPX2 variant

— article PMC4032492, “Molecular mechanism of Aurora A kinase autophosphorylation and its allosteric activation by TPX2” (eLife, 2014)
